Results on one molecule are retold here after patent publication US20160031958A1, “METHODS AND COMPOSITIONS USEFUL IN MANIPULATING THE STABILITY OF RE1 SILENCING TRANSCRIPTION FACTOR” (OREGON HEALTH & SCIENCE UNIVERSITY, priority 2014, published 2016).

For one test, the system named is endogenous REST protein. Briefly: Western blot of endogenous REST protein levels in transfected E12.5 neurospheres. The test is classed as cell-based. The settings on record: E12.5 mouse cortical neurospheres after transfection; MG132 4 h; compared to control peptides. How it is done:
FIG. 7B is an image of a Western blot showing endogenous REST protein levels in E12.5 neurospheres after transfection. Lane 1, empty vector; lane 2, control (595-694) peptide; lane 3, REST(810-910) S861/864A peptide; lane 4, REST(810-910) WT peptide; lane 5, empty vector with MG132 treated for 4 h. The blot was probed with anti-mouse-REST antibody and anti-tubulin (loading control) antibodies.
There is a significant difference between REST (810-910) compared to control (595-694) peptide (n=5, p=0.0021) and REST(810-910) compared to S861/864A REST(810-910) (n=5, p=0.046). The difference between MG132 and REST(810-910) is not significant (n=5, p=0.7996, Sidak's multiple comparison test, error bars represent 95% confidence interval).
The Examples above used the REST (810-910) reporter as a surrogate substrate for signaling molecules that target S861/S864 on full-length REST. […]
Whole cell lysates were prepared and immunoprecipitated following the procedures in Ballas N et al, 2001 supra and Nesti E et al, Mol Biol Cell 15, 4073-4088 (2004); incorporated by reference herein. Western blots were performed by standard procedures using antibodies described below and analyzed using anti IgG conjugated to infrared dyes (ThermoFisher) on an Odyssey® infrared fluorescence imager (LiCor). […] Infrared fluorescence was detected on the Odyssey® imager (LiCor) in the 700 nm channel. […]
For orientation: A western blot detects proteins with antibodies after separation by electrophoresis.

In another test the test system is E12.5 neurospheres. Briefly: Neuronal differentiation of E12.5 neurospheres (MAP2 immunostaining). It counts as cell-based, mouse. The settings on record: neurospheres differentiated 10 d, versus control (595-694) peptide, p<0.0001. From the text: FIG. 8A is a photomicrograph of representative immuno-labeled E12.5 neurospheres transfected with REST (810-910)- or control peptide-IRES-GFP, sorted, and then allowed to differentiate for 10 d in culture. White, DAPI nuclei; Red, MAP2 antibody.
Results are from three different transfections. Fields were selected from multiple places on the cover slip, number of cells indicated on bars (p<0.0001, unpaired t test).
Previous studies indicate that persistent REST expression in progenitors inhibits neuronal differentiation. Therefore, it was assessed whether stabilization of REST, via expression of the unmutated REST (810-910) peptide in neural progenitors, would also hinder neuronal differentiation. Mouse neurosphere cultures were immunostained for Microtubule Associated […] 2 (MAP2), a marker of mature neurons, at days 0 and 10 post-transfection. On day 0 there was negligible MAP2 signal and no significant difference between the two conditions.
HEK293T cells were transfected using Lipofectamine 2000 (Life Technologies) following the manufacturer's instructions. PC12 tet, PC12 tet-on FLAG-REST, and HEK293T cell lines were maintained as described in Ballas N et al 2001 supra. […]

The subject of a further test is neural progenitor cells. As to the kind of experiment: Cortical neuronal migration after in utero electroporation in rat embryos. The test is classed as in vivo. The note with it: cDNA electroporated in utero at E16, harvested E18, 6 embryos, 18 cortical slices. Here is the method: REST protein lacking S861/864 (negative control) and wild-type REST (810-910) peptide (experimental) were expressed in the lateral ventrical of the cortex of rat embryos (E16) by injection and in utero electroporation of the respective cDNA into neural stem cells. The embryos were then allowed to gestate for 48 hours (E18) prior to harvesting. Panel 1 and 2 are representative E18 cortical brain slices expressing REST protein lacking S861/864 (negative control) and wild-type REST protein (experimental).
FIG. 11B is a plot showing that the effect of wild type REST (810-910) peptide on neuronal migration is quantitative. […] No significant difference in neural stem cell migration between the control REST protein lacking S861/864 (negative control) and the wild-type REST (810-910) peptide (experimental) in the SVZ and the intermediate zone (IZ) (Boxes 1 and 2). […] Error bars represent standard deviation, (**P<0.001, *P<0.01 unpaired t test).

B1: REST (810-910) peptide: peptide encoding amino acids 810-to-910 of REST with unmutated S861/S864, expressed from cDNA (protein)
chain: ISKKPPLRKDKKEKSNMQSERARKEQVLIEVGLVPVKDSWLLKESVSTEDLAPPAPPLPKENLREEASGDQKLLNTGEGNKEAPLQKVGAEEADESLPGLA
In the case of B1, in the test with endogenous REST protein, the “Endogenous full-length REST protein levels” value was “significantly stabilized endogenous full-length REST protein”. Also, the MAP2-positive cells entry in the test on E12.5 neurospheres is reported as “fewer MAP2-positive cells”. The “Migration of neural progenitor cells from the SVZ toward the cortical plate (CP)” value with neural progenitor cells is given as “significantly less migration to the CP”.
